Data from paper PMC10901556, “Conservation of Affinity Rather Than Sequence Underlies a Dynamic Evolution of the Motif-Mediated p53/MDM2 Interaction in Ray-Finned Fishes” (Molecular Biology and Evolution, 2024).

Tests used:
[1] = target: MDM2 SWIB domain from Clupea harengus (Atlantic herring) (Clupea harengus (Atlantic herring)); experiment: fluorescence polarisation; displacement: complex of MDM2 (0.2-2 μM) and FITC-p53TAD_(human)^15–26 (15 nM) displaced by increasing unlabeled p53TAD peptide or p53TAD^full-length; KD calculated from IC50 (Nikolovska-Coleska et al. 2004); 20 mM sodium phosphate pH 7.4, 150 mM NaCl, 1 mM TCEP
[2] = target: MDM2 SWIB domain from Maylandia zebra (Maylandia zebra); experiment: as above
[3] = target: MDM2 SWIB domain from Oncorhynchus kisutch (coho salmon) (Oncorhynchus kisutch (coho salmon)); experiment: as above
[4] = target: MDM2 SWIB domain from Anguilla anguilla (European eel) (Anguilla anguilla (European eel)); experiment: as above
[5] = target: MDM2 SWIB domain from Lepisosteus oculatus (spotted gar) (Lepisosteus oculatus (spotted gar)); experiment: as above
[6] = target: MDM2 SWIB domain from Takifugu rubripes (Japanese puffer) (Takifugu rubripes (Japanese puffer)); experiment: as above
[7] = target: MDM2 SWIB domain from Channa argus (Channa argus); experiment: as above
[8] = target: MDM2_(D.rerio) SWIB domain (Danio rerio (zebrafish)); experiment: as above
[9] = target: MDM2_(D.rerio) SWIB domain (Danio rerio (zebrafish)); experiment: ITC; MicroCal iTC200, 25 °C; D. rerio MDM2 11 μM in the cell, p53TAD 118 or 116 μM in the syringe; 20 mM sodium phosphate pH 7.4, 150 mM NaCl, 1 mM TCEP
[10] = target: MDM2_(D.rerio) SWIB domain; experiment: fluorescence polarization competition assay
MDM2 SWIB (Homo sapiens) = MDM2 SWIB (Homo sapiens) (UniProt Q00987); settings: cited from earlier work

## Clupea harengus p53TADP2 p53TAD^15–27 (peptide)
[1]
  Kd: 600 nM

## Maylandia zebra p53TADP1 p53TAD^full-length (domain or fragment)
[2]
  Kd: 190 nM

## Oncorhynchus kisutch p53TADP2 p53TAD^full-length (domain or fragment)
[3]
  Kd: 70 nM

## Anguilla anguilla p53TADP2 p53TAD^full-length (domain or fragment)
[4]
  Kd: 60 nM

## Clupea harengus (Atlantic herring) p53TADP1 p53TAD^full-length (domain or fragment)
[1]
  Kd: 190 nM

## Lepisosteus oculatus (spotted gar) p53TAD^full-length (domain or fragment)
[5]
  Kd: 85 nM

## p53TAD_(H.sapiens)^15–27 (peptide)
[3]
  Kd: 780 nM
[2]
  Kd: 1700 nM
[4]
  Kd: 900 nM
[5]
  Kd: 370 nM
[6]
  Kd: 1100 nM
[1]
  Kd: 1800 nM
[7]
  Kd: 2100 nM

## p53TAD_(D.rerio)^full-length (domain or fragment)
[8]
  Kd: 49 nM
[9]
  Kd: 100 nM

## p53TAD^17–32_(D.rerio) (peptide)
[8]
  Kd: 180 nM
[9]
  Kd: 300 nM

## Clupea harengus p53TADP2 p53TAD^full-length (domain or fragment)
[1]
  Kd: 40 nM

## Oncorhynchus kisutch (coho salmon) p53TADP1a p53TAD^full-length (domain or fragment)
[3]
  Kd: 48 nM

## alternative p53TAD^17–32_(D.rerio) (P79734) (peptide)
[8]
  Kd: 580 nM

## Anguilla anguilla (European eel) p53TADP1 p53TAD^full-length (domain or fragment)
[4]
  Kd: 230 nM

## Oncorhynchus kisutch p53TADP1b p53TAD^full-length (domain or fragment)
[3]
  Kd: 60 nM

## p53TAD^17–32_(D.rerio) I28A
[10]
  Kd: 460 nM

## p53 TAD (from UniProt P04637)
MDM2 SWIB (Homo sapiens)
  Kd: 100 nM

## Channa argus p53TADP1 p53TAD^full-length (domain or fragment)
[7]
  Kd: 100 nM
